Molecular target: human mpl (myeloproliferative leukemia receptor, TPO receptor) expressed on stably transfected BaF3 cells (human) (UniProt P40238)
Test: cell-based or functional assay

proliferation of mpl-expressing BaF3 cells (activity of the supernatant): 300000 U/ml
Substance: human thrombopoietin (TPO), expressed in COS cells from cDNA cloned from human fetal liver; used as TPO-containing COS supernatant (from UniProt P40225 22-353) (ligand)

From patent US6916470
